Measured values from patent US20040210041A1 (published 2004).
Positions of bridges follow the written chain, without caps; N, C: chain ends.

Experiments:
[1] = molecular target: T1, KDR (VEGFR-2), full-length receptor on cells (human, UniProt P35968 20-1356); assay: competition with 300 pM 125I-VEGF on KDR-transfected 293H cells; peptide 0.3 µM
T1 construct: whole, on cells; also called KDR-expressing cells
Experimental: (§1) Cells were used 24 h after transfection, and to prepare the cells for the assay, they were washed 3 times with room temperature Ml 99 medium and placed in the refrigerator. […] Each dilution was added to three separate wells of mock and KDR transfected cells. Aflter incubating at 4° C. for 2 h, the plates were washed 5 times with cold binding buffer, gently blotted dry and checked under a microscope for cell loss. 100 μL of solubilizing solution (2% Triton X-100, 10% Glycerol, 0.1% BSA) was added to each well and the plates were incubated at room temperature for 30 minutes. The solubilizing solution in each well was mixed by pipeting up and down, and transferred to 1.2 mL tubes. Each well was washed twice with 100 μL of solubilizing solution and the washes were added to the corresponding 1.2 mL tube.

[2] = molecular target: T1, KDR (VEGFR-2), full-length receptor on …; assay: competition with 300 pM 125I-VEGF on KDR-transfected 293H cells; peptide 30 µM
Experimental: as §1

[3] = molecular target: T1, KDR (VEGFR-2), full-length receptor on …; assay: cell-based or functional assay

T1 sequence (P35968 20-1356): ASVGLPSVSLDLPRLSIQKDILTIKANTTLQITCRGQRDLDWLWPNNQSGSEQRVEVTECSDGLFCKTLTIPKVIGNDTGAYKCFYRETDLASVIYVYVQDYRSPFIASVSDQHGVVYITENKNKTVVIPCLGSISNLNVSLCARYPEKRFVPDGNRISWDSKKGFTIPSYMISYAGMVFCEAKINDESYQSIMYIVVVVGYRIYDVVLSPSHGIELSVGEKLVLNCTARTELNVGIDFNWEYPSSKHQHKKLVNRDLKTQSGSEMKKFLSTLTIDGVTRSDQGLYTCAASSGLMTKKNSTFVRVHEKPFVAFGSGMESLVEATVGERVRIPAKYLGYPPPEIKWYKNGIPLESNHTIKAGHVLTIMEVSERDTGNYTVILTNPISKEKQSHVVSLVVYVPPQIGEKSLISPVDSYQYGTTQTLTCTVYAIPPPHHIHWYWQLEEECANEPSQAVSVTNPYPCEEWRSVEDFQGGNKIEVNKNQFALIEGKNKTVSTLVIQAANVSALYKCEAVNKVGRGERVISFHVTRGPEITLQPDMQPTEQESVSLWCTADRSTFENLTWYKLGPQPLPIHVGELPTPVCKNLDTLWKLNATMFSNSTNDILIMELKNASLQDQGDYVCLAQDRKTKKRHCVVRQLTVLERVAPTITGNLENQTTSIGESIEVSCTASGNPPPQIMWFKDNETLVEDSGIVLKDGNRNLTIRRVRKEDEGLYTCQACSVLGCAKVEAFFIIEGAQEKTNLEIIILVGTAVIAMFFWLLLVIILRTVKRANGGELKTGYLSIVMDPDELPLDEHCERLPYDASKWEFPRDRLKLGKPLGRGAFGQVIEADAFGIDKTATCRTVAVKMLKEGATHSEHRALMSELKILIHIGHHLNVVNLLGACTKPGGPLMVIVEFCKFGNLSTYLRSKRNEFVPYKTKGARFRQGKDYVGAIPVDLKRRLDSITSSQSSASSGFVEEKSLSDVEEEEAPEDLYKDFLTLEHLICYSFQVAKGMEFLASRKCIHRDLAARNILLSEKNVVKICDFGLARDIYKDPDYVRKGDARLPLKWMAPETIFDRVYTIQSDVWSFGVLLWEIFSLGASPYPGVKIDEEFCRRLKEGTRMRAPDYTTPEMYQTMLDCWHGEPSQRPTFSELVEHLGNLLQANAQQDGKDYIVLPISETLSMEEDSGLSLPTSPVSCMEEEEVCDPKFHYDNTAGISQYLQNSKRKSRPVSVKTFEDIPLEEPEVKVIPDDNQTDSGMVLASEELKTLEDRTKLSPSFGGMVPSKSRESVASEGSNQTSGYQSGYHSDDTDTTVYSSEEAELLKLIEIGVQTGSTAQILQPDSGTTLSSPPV

% inhibition of 125I-labeled VEGF binding [1] [%] | % inhibition of 125I-labeled VEGF binding [2] [%] | IC50, receptor activation assay [3] [nM] | inhibition of VEGF-induced KDR phosphorylation [3] [% inhibition at 10 µM] | Binder
52.3 | 96.3 | 1000 | ≥ 50 | Ac-GDSRVCWEDSWGGEVCFRYDPGGGK-NH2 (disulfide 6-16 (inferred)) [P6-D]
– | – | – | ≥ 50 | Ac-AGWIECYHPDGICYHFGTGGGK-NH2 (disulfide 6-13 (inferred)) [P2-D]
